Results: patent US20230167164A1

Target: IFN-γ receptor (UniProt P15260)
Test: cell-based or functional assay

IFN-γ receptor, sequence (P15260 18-489 limits assumed, chain 1 of 2): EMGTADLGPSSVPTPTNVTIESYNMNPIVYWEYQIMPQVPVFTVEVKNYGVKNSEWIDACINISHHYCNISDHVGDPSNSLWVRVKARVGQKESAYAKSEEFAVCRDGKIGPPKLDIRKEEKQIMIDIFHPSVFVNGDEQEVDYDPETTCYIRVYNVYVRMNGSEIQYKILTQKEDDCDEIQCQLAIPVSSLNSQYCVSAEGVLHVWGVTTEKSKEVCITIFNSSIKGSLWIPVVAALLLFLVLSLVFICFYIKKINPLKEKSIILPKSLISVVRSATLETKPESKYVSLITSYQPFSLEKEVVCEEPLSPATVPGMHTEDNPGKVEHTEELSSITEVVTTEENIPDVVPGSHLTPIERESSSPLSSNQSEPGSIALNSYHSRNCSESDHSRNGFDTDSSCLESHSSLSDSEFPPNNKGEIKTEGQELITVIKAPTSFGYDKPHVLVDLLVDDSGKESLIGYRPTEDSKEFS
IFN-γ receptor, sequence (P38484 22-337 limits assumed, chain 2 of 2, further chain): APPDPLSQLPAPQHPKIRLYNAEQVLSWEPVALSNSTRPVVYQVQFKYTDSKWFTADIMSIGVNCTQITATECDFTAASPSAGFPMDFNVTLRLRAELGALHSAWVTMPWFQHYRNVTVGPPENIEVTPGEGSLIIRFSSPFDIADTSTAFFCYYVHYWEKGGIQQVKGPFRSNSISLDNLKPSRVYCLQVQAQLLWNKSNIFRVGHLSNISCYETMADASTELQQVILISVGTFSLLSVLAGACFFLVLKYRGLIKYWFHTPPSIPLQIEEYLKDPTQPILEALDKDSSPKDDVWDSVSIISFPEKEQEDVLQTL

- PD-L1 expression induced on HEK-CD4-IFN-γ cells, MFI of anti-PD-L1 APC staining: 67 MFI
- PD-L1 expression induced on HEK-IFN-γ cells, MFI of anti-PD-L1 APC staining: 75 MFI
Substance: recombinant IFN-γ (free state) (from UniProt P01579 24-166) (ligand)
